Experimental findings from PMC10418658, “Biochemical and Structural Insights into a Thiamine Diphosphate-Dependent α-Ketoglutarate Decarboxylase from Cyanobacterium Microcystis aeruginosa NIES-843” (International Journal of Molecular Sciences, 2023) are described below.

Where a chain is given by its changes, count along the chain named. Names and notes keep the numbering of the source.

Common to all, as to assay: purified protein
Substrate in series [1]: Cc1ncc(C[n+]2csc(CCO[P@](=O)(O)OP(=O)(O)O)c2C)c(N)n1
The settings on record: half-saturation of activity, varied: cofactor.

Substrate in series [2]: O=C(O)CCC(=O)C(=O)O
It is filed as biochemical, Synechocystis sp. PCC 6803. The settings on record: saturated ThDP and Mg2+; purified from coexpression with pTf16.

Substrate in series [3]: O=C(O)CCC(=O)C(=O)O
Format: biochemical, Microcystis aeruginosa. To be noted: 1 mM ThDP, 2 mM Mg2+, 100 mM HEPES pH 7.0, 10% glycerol, 25 °C.

Substrate in series [4]: Cc1ncc(C[n+]2csc(CCO[P@](=O)(O)OP(=O)(O)O)c2C)c(N)n1
It is filed as biochemical, Microcystis aeruginosa. To be noted: 10 mM α-ketoglutarate, 2 mM Mg2+, 100 mM HEPES pH 7.0, 10% glycerol, 25 °C, varied: cofactor.

B1: StKGD (Synechocystis sp. PCC 6803 substr. Kazusa) (protein)
chain: MGQMNTADLLVQCLENEDVEYIFGVPGEENLHILEALKNSPIRFITTRHEQGAAFMADVYGRLTGKAGVCLSTLGPGATNLMTGVADANLDGAPLVAITGQVGTDRMHIESHQYLDLVAMFDPVTKWTRQIVRPSITPEVVRKAFKLAQSEKPGATHIDLPENIAAMPVDGKPLRRDSREKVYAAFRTLGTAANAISKAKNPIILAGNGTIRAEASEALTEFATSLNIPVANTFMGKGTMPYTHPLSLWTVGLQQRDHITCAFEKSDLVIAVGYDLIEYSPKKWNPTGDLPIIHIGATPAEIDSSYIPQVEVVGDITDSLMDLLKRCDRQGKPTPYGASLRAEIRAEYECYANDTGFPVKPQKIIYDLRQVMGPDDVVISDVGAHKMWMARHYHCDSPNTCLISNGFAAMGIAIPGAIAAKLVYPERNIVAVTGDGGFMMNCQELETAMRVGTPFVTLIFNDNGYGLIEWKQINQFGESSFIKFGNPDFVKFAESMGLKGYRVEAAADLIPILKEALAQPVPTVIDCPVDYRENIRFSQKAGELACEIWE
notes: recombinant, coexpressed with chaperone plasmid pTf16 and purified again in this study
Turning to B1, in the series “purified protein [1]” (purified from coexpression with pTf16), the K0.5 is recorded as 0.063 ± 0.019 mM. Further, in the series “purified protein [2]”, the Km (in general, the substrate concentration at which the rate is half of its maximum) is 3830 ± 750 µM; the kcat (usually the number of substrate molecules converted per active site and unit of time at saturation) was 3.07 ± 0.42 s⁻¹; the specificity constant (kcat/Km) (in general, the second-order rate constant that governs catalysis at low substrate concentration) was 800 M⁻¹ s⁻¹.

B2: MaKGD (Microcystis aeruginosa NIES-843) (protein)
chain: MGELNTAELLVKCLENEGVEYIFGLPGEENLDVLEALKNSSIKFITTRHEQGAAFMADVYGRLTGKAGVCLSTLGPGATNLMTGVADANLDGAPLVAITGQVGTDRMHIESHQYLDLVAMFAPVTKWNKQIVRPGITPEVVRRAFKTAQSEKPGAVHIDLPENIAAMAADGHPLPLDSQEKVYASYRTLNMAAAVISKAKNPLILAGNGAIRANASEALTEFATALNIPVANTFMGKGVIPYTHPLALWAVGLQQRDLISCAFERSDLIIAVGYDLIEYSPKKWNPDGKLPIIHIGMTPAEIDSSYAPVVEVVGDITDSLIDILKRADRQNKPTPVTAGLKTEIRADYETYANDTGFPIKPQKLIYDLRQVMGPEDIAICDVGAHKMWMARQYHSDCPNTCIISNGFAAMGIAIPGAIAAKLVYPNKRIVAVTGDGGFMMNCQELETALRVGTPFVTLIFNDGGYGLIEWKQLNYFGTSSFIKFGNPDFVKFAESMGLKGYRVESTQDLIPTLEEAFRQEVPTVIDVPVDYGENLRLSQKSGDLSCQIWE
notes: full length, pET28a (NdeI/XhoI), E. coli BL21(DE3) with chaperone plasmid pTf16, imidazole-eluted; codon-optimised gene
Take B2: the K0.5 in the series “purified protein [1]” (10 mM α-ketoglutarate, 2 mM Mg2+, 100 mM HEPES pH 7.0, 10% glycerol, 25 °C, pH 7.0, 25.0 °C) worked out at 0.0056 ± 0.0007 mM. Further, in the series “purified protein [3]”, the Km amounted to 870 ± 230 µM, the kcat was 7.8 ± 0.5 s⁻¹ and the kcat/Km worked out at 8970 M⁻¹ s⁻¹.

B3: MaKGD (Microcystis aeruginosa NIES-843; M410A) (protein)
chain: B2 chain with M410A
notes: as for B2
B3: in “purified protein [4]”, the K0.5 is 0.046 ± 0.010 mM.

B4: MaKGD (Microcystis aeruginosa NIES-843; L467A) (protein)
chain: B2 chain with L467A
notes: as for B2
For B4, the K0.5 in the series “purified protein [4]” was 0.026 ± 0.004 mM. Moreover, in the series “purified protein [3]”, the Michaelis constant (Km) amounted to 1220 ± 510 µM and the kcat was 2.7 ± 0.32 s⁻¹.

B5: MaKGD (Microcystis aeruginosa NIES-843; D435E) (protein)
chain: B2 chain with D435E
notes: as for B2
With B5, the K0.5 in “purified protein [4]” came out at 0.041 ± 0.003 mM.

B6: MaKGD (Microcystis aeruginosa NIES-843; D462E) (protein)
chain: B2 chain with D462E
notes: as for B2
On to B6, for which the K0.5 in “purified protein [4]” was 0.761 ± 0.143 mM. Moreover, in the series “purified protein [3]”, the Km was 2380 ± 630 µM and the kcat is 9 ± 0.47 s⁻¹.

B7: MaKGD (Microcystis aeruginosa NIES-843; Y465A) (protein)
chain: B2 chain with Y465A
notes: as for B2
For the protein B7, the K0.5 in “purified protein [4]” was found to be 0.090 ± 0.021 mM. Also, in the series “purified protein [3]”, the Michaelis constant (Km) came out at 1480 ± 270 µM and the kcat was 1.23 ± 0.25 s⁻¹.

B8: MaKGD (Microcystis aeruginosa NIES-843; D462N) (protein)
chain: B2 chain with D462N
notes: as for B2
On to B8, for which, in the series “purified protein [4]”, the K0.5 is listed as 0.008 ± 0.001 mM. Also, in the series “purified protein [3]”, the Km was 3920 ± 450 µM and the kcat was 1.5 ± 0.36 s⁻¹.

B9: MiKGD (Microcystis aeruginosa NIES-4325) (protein)
chain: MGELNTAELLVKCLENEGVEYIFGLPGEENLDVLEALKNSSIKFITTRHEQGAAFMADVYGRLTGKAGVCLSTLGPGATNLMTGVADANLDGAPLVAITGQVGTDRMHIESHQYLDLVAMFAPVTKWNKQIVRPGITPEVVRRAFKTAQSEKPGAVHIDLPENIAAMPADGHPLPLDSQEKVYASYRTLNMAAAVISKAKNPLILAGNGAIRANASEALTEFATALNIPVANTFMGKGVIPYTHPLALWAVGLQQRDLISCAFDRSDLIIAVGYDLIEYSPKKWNPEGKLPIIHIGMTPAEIDSSYAPVVEVVGDITDSLIDILKRADRQNKPTPVTAGLKTEIRADYETYANDTGFPIKPQKLIYDLRQVMGPEDIVISDVGAHKMWMARQYHSDCPNTCIISNGFAAMGIAIPGAIAAKLVHPDKRVVAVTGDGGFMMNCQELETALRVGTPFVTLIFNDGGYGLIEWKQFNYFGTSSFIKFGNPDFVKFAESMGLKGYRVESAQDLIPILEEAFQQEVPTVIDVPVDYGENLRLSQKSGDLSCQIWE
notes: full length, pET28a (NdeI/XhoI), E. coli BL21(DE3) with chaperone plasmid pTf16; codon-optimised gene
Turning to B9, the K0.5 in the series “purified protein [4]” (half-saturation of activity) is 0.026 ± 0.006 mM. Also, in “purified protein [3]”, the Km was 4470 ± 630 µM, the turnover number (kcat) amounted to 4.33 ± 0.37 s⁻¹ and the catalytic efficiency (kcat/Km) came out at 970 M⁻¹ s⁻¹.
